Assay results reported in patent publication US10184140B2, “Materials and methods for production of bi-functional fatty acids in recombinant bacteria” (IOWA STATE UNIVERSITY RESEARCH FOUNDATION, INC., priority 2013, dated 2019).
“Also recorded” adds a separate entry of the source. Where two headings read alike, the source gives them in different places.

Experiments:
[1] = Spectrophotometric coupled assay (FabD/FabG, NADPH at 340 nm) of KASIII specific activity with acyl-CoA substrates; settings: n.d. = not detectable; for Specific Activity with Isobutyryl-CoA: substrate isobutyryl-CoA
Protocol: The method comprises (i) incubating holo-ACP, malonyl-CoA, acyl-CoA, NADPH, and malonyl-CoA:ACP transacylase (FabD), (ii) adding KASIII and 3-ketoacyl-ACP reductase (FabG), and (iii) measuring the change in absorbance at 340 nm when NADPH is converted to NADP+ during reduction of 3-ketoacyl-ACP to 3-hydroxyl-acyl ACP by FabG.
Activity of A. acidocaldarius KASIII with different acyl-CoA substrates (acetyl-CoA, isobutyryl-CoA and 3-hydroxybutyryl-CoA (Sigma-Aldrich)) was ascertained by a coupled assay. The assay was performed in 96-well plate format with three replicates for each reaction condition. In a total volume of 100 μl for each reaction the reaction mix containing 100 μM holo-ACP, 200 μM malonyl-CoA, 10 mM DTT, 50 μM acyl-CoA substrate (either acetyl-CoA, isobutyryl-CoA or 3-hydroxy-butyryl-CoA) and 200 μM NADPH in 0.1 M sodium phosphate buffer (pH 7.2) was pre-incubated with 60 μg of FabD for two minutes. The reaction was started by the addition of 30 μg of FabG and varying concentrations of A. acidocaldarius (0.5-15 μg). Change in absorbance of NADPH that was being converted to NADP^+ during reduction of 3-ketoacyl-ACP 3-hydroxy-acyl-ACP by FabG was recorded at 340 nm using a Biotek multi-plate reader.
Spectrophotometric assay was used to assess the activity of A. acidocaldarius KASIII with various acyl-CoA substrates. The assay coupled the appearance of the KASIII-product (3-ketoacyl-ACP) to the oxidation of NADPH, catalyzed by 3-ketoacyl-ACP reductase (FabG).
KASIII enzymatic activity was ascertained via spectrophotometric assay, which coupled the appearance of 3-ketoacyl-ACP to the oxidation of NADPH, using the E. coli FabG protein to reduce 3-ketoacyl-ACP to 3-hydroxyacyl-ACP. The assay was performed in a 96-well plate-format with three technical replicates for each reaction condition. In a total volume of 100 μl for each reaction, the reaction mix contained 100 μM holo-ACP, 200 μM malonyl-CoA, 10 mM DTT, 50 μM acyl-CoA substrate, and 200 μM NADPH in 0.1 M sodium phosphate buffer (pH 7.2). This mixture was pre-incubated with 60 μg of FabD for two minutes to initiate synthesis of malonyl-ACP from malonyl-CoA and holo-ACP. The reaction was then started by the addition of 30 μg of FabG and varying concentrations of KASIII enzyme (0.5-15 μg). As KASIII catalysed the condensation of acyl-CoA with malonyl-ACP to form 3-ketoacyl-ACP, FabG reduced the 3-ketoacyl-ACP intermediate to 3-hydroxy-acyl ACP in the presence of NADPH.

[2] = Saturation Transfer Difference NMR of KASIII enzymes with acetyl-CoA or isobutyryl-CoA; assay type: binding; settings: protein/ligand 1:100, 25° C.
Protocol: NMR experiments were performed at 25° C. on a Bruker AV700 MHz spectrometer equipped with a 5 mm HCN cryoprobe. Samples for STD NMR experiments were prepared in 0.1 M sodium phosphate buffer (pH 7.4) with 5% D2O. The protein/ligand ratio was set as 1:100 with KASIII concentration in the 20-25 μM range. Saturation was applied as CW pulse with a power of 58-60 Hz, with on-resonance pulses at 0.62 ppm and 6.86 ppm for upfield and downfield, respectively. The off-resonance pulse was applied at 45 ppm. 3-9-19 WATERGATE suppression was used with a T1-ρ filter. Saturation time of five seconds with an additional delay of 5.1 seconds was used. A set of three replicates was acquired, with 32 scans in each replicate, for each STD NMR experiment of KASIII wild-type or mutated enzyme with a ligand, which was either acetyl-CoA or isobutyryl-CoA (Sigma-Aldrich, St. Louis, Mo.). The reference and the saturated spectra were obtained in an interleaved manner. Resonance assignments of 1H NMR spectra of free ligands were completed using ID 1H and COSY.
Control experiments were carried out by applying on- and off-resonance saturation pulses either to the ligand in the absence of protein, or to the ligand in the presence of denatured protein.
Relative STD effects (ASTD) were calculated according to the equation ASTD=(Io−Isat)/Io where Isat is the signal intensity of the saturated spectrum and Io is the signal intensity of the reference spectrum (Mayer et al., J. Am. Chem. Soc. 123: 6108-6117 (2001)). STD amplification factor was calculated according to the equation: STDaf=ASTD×molar ligand excess.
STD NMR experiments elucidated interactions of these purified enzymes (both wild-type and mutated) with straight-chain substrate (acetyl-CoA) and branched-chain substrate (isobutyryl-CoA) and enabled mapping of binding epitopes on the two substrates. Relative saturation transfer to each of the binding epitopes was measured and converted to the STD amplification factor (STDaf), which is an indicator of ligand binding (Mayer et al., J. Am. Chem. Soc. 123: 6108-6117 (2001)). Ligand epitopes with high STDaf values are assumed to receive higher saturation transfer from the enzyme, and thus are in close contact with the enzyme.

[3] = Melting temperatures (Tm) of KASIII enzymes without ligand; assay type: physicochemical; settings: in water, no ligand, baseline Tm
[4] = tested on: B. subtilis ΔyjaXΔyhfB mutant strain; assay: Genetic complementation of B. subtilis ΔyjaXΔyhfB double mutant with KASIII genes; settings: grown without exogenous branched-chain fatty acids, IPTG induced
Protocol: Genetic complementation of the B. subtilis ΔyjaXΔyhfB double mutant strain with aaKASIII, taKASIII or ecKASIII expression vectors was conducted using pUCB-erm-derived plasmids carrying the different KASIII ORF sequences. In these vectors each of the different KASIII ORFs were under the control of the Pspac promoter and were inserted between the downstream and upstream DNA fragments of the 135-bp ORF in the ΔyhfB allele of the ΔyjaXΔyhfB::erm double mutant.
The B. subtilis ΔyjaXΔyhfB mutant strain was used as a vehicle to screen for KASIII enzymes that can utilize branched-chain acyl-CoA substrates and can therefore synthesize branched-chain fatty acids, thereby rescuing the lethal ΔyjaXΔyhfB deletion phenotype. […] The resulting three B. subtilis ΔyjaXΔyhfB mutant strains, each expressing one of the recombinant KASIII genes (due to the inclusion of the inducer IPTG in the media), were grown in the absence of exogenously supplied branched-chain fatty acids.

[5] = assay type: binding; settings: ligand in 50-fold molar excess, relative to water control
[6] = Kinetic parameters of aaKASIII and ecKASIII (spectrophotometric enzyme assay); assay type: biochemical
Protocol: Therefore, aaKASIII was assayed with 3-hydroxybutyryl-CoA as a substrate, and its specific activity was determined using an in vitro spectrophotometric enzyme assay. KASIII enzyme assays were carried out spectrophotometrically using 400 μM ACP, 400 μM malonyl-CoA, 10-400 μM various acyl-CoAs, 400 μM NADPH, 1 mM DTT, 6 mg/ml FabD, 1.5 mg/ml FabG, and either 4 mg/ml of aaKASIII or 9.5 mg/ml of ecKASIII. The specific activity for this reaction catalysed by aaKASIII was 5-fold and 3-fold higher with isobutyryl-CoA and 3-hydroxybutyryl-CoA, respectively, than that obtained with acetyl-CoA.

Molecule: E. coli KASIII Wild-type: E. coli 3-ketoacyl-ACP synthase III encoded by fabH, GenBank AAG55837.1, amino acid sequence SEQ ID NO:62
- Specific Activity with Acetyl-CoA ([1]; substrate acetyl-CoA): 447 ± 68 nmol/min/mg
- Specific Activity with Isobutyryl-CoA [1]: 36 ± 14 nmol/min/mg
- STD amplification factor (STDaf), HAP proton of acetyl-CoA [2]: ~6.0
- STD amplification factor (STDaf), HB proton of isobutyryl-CoA [2]: ~4.0
- STD amplification factor (STDaf), HT proton of acetyl-CoA [2]: ~5.0
- STD amplification factor (STDaf), HT proton of isobutyryl-CoA [2]: 2.5
- Melting temperature (Tm) without ligand [3]: 55.0 ± 0.18 °C
- Melting temperature (Tm) without ligand ([3]; listed as ecKASIII): ~55.0 °C
- Rescue of the lethal phenotype of the B. subtilis ΔyjaXΔyhfB mutant strain [4]: could not
- Thermal shift: increase in Tm with acetyl-CoA ([5]; listed as ecKASIII): bound; also recorded: positive thermal shifts
- Thermal shift: increase in Tm with propionyl-CoA ([5]; listed as ecKASIII): bound; also recorded: positive thermal shifts
- Kinetic parameters (whole line) ([6]; substrate 3-OH-butyryl-CoA): not a substrate
- Km ([6]; substrate acetyl-CoA): 96.8 ± 4.7 µM
- Specific Activity ([6]; substrate acetyl-CoA): 447 ± 68 nmol/mg/min
- Vmax ([6]; substrate acetyl-CoA): 0.00033 ± 1e-05 µmol/s
- kcal ([6]; substrate acetyl-CoA): 0.0214 ± 0.00093 s⁻¹
- Kinetic parameters (whole line) ([6]; substrate isobutyryl-CoA): not a substrate

B1: B. subtilis KASIIIb Wild-type: B. subtilis KASIIIB, bfabHB (yhfB) locus, GenBank CAB12857.1, amino acid sequence SEQ ID NO:66 (protein)
chain: MSKAKITAIGTYAPSRRLTNADLEKIVDTSDEWIVQRTGMRERRIADEHQFTSDLCIEAVKNLKSRYKGTLDDVDMILVATTTSDYAFPSTACRVQEYFGWESTGALDINATCAGLTYGLHLANGLITSGLHQKILVIAGETLSKVTDYTDRTTCVLFGDAAGALLVERDEETPGFLASVQGTSGNGGDILYRAGLRNEINGVQLVGSGKMVQNGREVYKWAARTVPGEFERLLHKAGLSSDDLDWFVPHSANLRMIESICEKTPFPIEKTLTSVEHYGNTSSVSIVLALDLAVKAGKLKKDQIVLLFGFGGGLTYTGLLIKWGM
modifications: B. subtilis
- Specific Activity with Isobutyryl-CoA [1]: 279 ± 8 nmol/min/mg
- Melting temperature (Tm) without ligand [3]: 48.7 ± 0.24 °C
- Melting temperature (Tm) without ligand ([3]; listed as bsKASIIIb): ~48.7 °C
- Thermal shift: increase in Tm with 3-hydroxybutyryl-CoA [5]: thermally stabilized
- Thermal shift: increase in Tm with butyryl-CoA [5]: ≥ 6 °C
- Thermal shift: increase in Tm with crotonyl-CoA [5]: ≥ 6 °C
- Thermal shift: increase in Tm with isobutyryl-CoA [5]: ≥ 6 °C
- Thermal shift: increase in Tm with isovaleryl-CoA [5]: ≥ 6 °C
- Thermal shift: increase in Tm with methylmalonyl-CoA [5]: ≥ 6 °C
- Thermal shift: increase in Tm with phenylacetyl-CoA [5]: ≥ 6 °C
- Thermal shift: increase in Tm with propionyl-CoA [5]: ≥ 6 °C
- Thermal shift: increase in Tm with benzoyl-CoA ([5]; listed as bsKASIIIb): destabilized the bsKASIIIb protein
- Thermal shift: increase in Tm with hexanoyl-CoA ([5]; listed as bsKASIIIb): destabilized the bsKASIIIb protein
